The target of assay [1] is Human serum albumin (human). In words: BLI, pH 7.4. (In general: Biolayer interferometry detects binding as a change in optical thickness at a sensor tip.)
The target in assay [2] is Human serum albumin (human). In words: BLI, pH 5.5.
The target of assay [3] is T1, Cynomolgus monkey serum albumin (cynomolgus monkey).
T1 chain: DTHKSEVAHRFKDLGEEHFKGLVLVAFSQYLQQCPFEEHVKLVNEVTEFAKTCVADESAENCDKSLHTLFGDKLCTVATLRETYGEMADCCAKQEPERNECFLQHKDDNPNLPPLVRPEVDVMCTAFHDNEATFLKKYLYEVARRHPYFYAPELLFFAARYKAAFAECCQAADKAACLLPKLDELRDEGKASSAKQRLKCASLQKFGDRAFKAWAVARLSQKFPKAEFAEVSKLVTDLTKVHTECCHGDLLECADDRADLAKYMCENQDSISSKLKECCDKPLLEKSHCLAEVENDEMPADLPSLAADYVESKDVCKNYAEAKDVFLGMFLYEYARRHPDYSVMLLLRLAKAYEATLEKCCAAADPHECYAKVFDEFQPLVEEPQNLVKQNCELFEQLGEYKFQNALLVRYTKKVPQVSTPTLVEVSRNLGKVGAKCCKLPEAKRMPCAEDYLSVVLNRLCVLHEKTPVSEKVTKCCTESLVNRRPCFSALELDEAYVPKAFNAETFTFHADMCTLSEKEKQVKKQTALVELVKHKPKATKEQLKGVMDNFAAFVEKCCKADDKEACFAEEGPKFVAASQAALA
In words: BLI, pH 5.5.

Assay [4] addresses T1, Cynomolgus monkey serum albumin. The experiment in a line: BLI, pH 7.4.
For assay [5], the target named is Human serum albumin (human).

These results are taken from US12215130 (dated 2025).

Broadly, the Kd is the concentration at which binding is half-saturated.

Like-named read-outs stand apart in the source and are kept apart here.

B1: AWT-P610 (designed binder)
chain: QVQLVESGGGVVQPGGSLRLSCAASGFAFRGFGMSWVRQAPGKGLEWVSSINNGGSDTYYADSVKGRFTISRDNSKNTLYLQMNSLRAEDTAVYYCAIGGPGASPSGQGTQVTVSS
As for B1, the Kd with Human serum albumin [1] worked out at 43 nM; with Human serum albumin [2] it was 39.8 nM; in assay [3] it was 47.1 nM; in assay [4] it was 49.6 nM.

B2: AWT-P367 (antibody, V domains shown)
VH: QVQLVESGGGLVQPGGSLRLSCAASGSTWSINTLAWYRQAPGKQRDLVARISSGGSTHYADSVKGRFTVSRDNAENTLVLQMNSLKPEDTAVYYCYAQSTWYPPSWGQGTQVTVSS
With B2, the Kd in the assay with Human serum albumin [1] came to 29.6 nM; with Human serum albumin [2], 9.6 nM; in assay [3], 20.5 nM; in assay [4] it was 18.9 nM.

For LAEAKVLANRELDKYGVSDYYKNLINNAKTVEGVKALIDEILAALP [G148-ABD-wt], in the assay with Human serum albumin [5], the Kd was around 1.2 nM.
